Patent US20200231674A1 (published 2020)

Molecular target: T1, human CD8 alpha (on transfected HEK293T cells) (human, UniProt P01732 22-235)
T1 construct: whole, on cells
Test: FACS on HEK293-T cells transfected with human CD8a (Example 2, FIG. 4)
Method: The binding characteristics of various VHHs (as described in Example 1) were tested by flow cytometry. HEK293-T cells were transfected with a human CD8a expression plasmid and stained with the His-tagged VHHs at […], followed by staining with an anti-His Fitc conjugated antibody. Binding was measured by detecting cellular fluorescence via flow cytometry.

T1 sequence (P01732 22-235): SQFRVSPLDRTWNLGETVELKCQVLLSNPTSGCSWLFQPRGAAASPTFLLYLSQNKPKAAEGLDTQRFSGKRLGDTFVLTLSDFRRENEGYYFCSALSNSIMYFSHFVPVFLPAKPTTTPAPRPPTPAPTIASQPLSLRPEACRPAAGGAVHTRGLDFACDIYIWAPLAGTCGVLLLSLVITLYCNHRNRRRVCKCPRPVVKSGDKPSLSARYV

binding result: binds
B1: 2CDA 74 (VHH)
VHH: QVQLQESGGGLVQAGGSLRLSCAVSGFTFDNYAIGWFRQAPGKEREGVSCISRSDGSTYYADSVRGRFTISSDNAKNTVYLQMNSLKPEDTAVYYCAAETSADSGEFRFGWVLKPSLYDYWGQGTQVTVSS
notes: entry carries AAA-HA-His6 tail (pMECS format); free cysteine in CDR2 at position 50
